Data on 6 molecules can be found in paper PMC9143231, “Parapoxvirus Interleukin-10 Homologues Vary in Their Receptor Binding, Anti-Inflammatory, and Stimulatory Activities” (Pathogens, 2022).

As usually defined, the stoichiometry N is a count of units in the complex or per binding partner.

In test [1] the target is hIL-10R1-Fc chimeric protein (extracellular domain of human IL-10 receptor 1 fused to Fc) (human) (UniProt Q13651). Description: ELISA; competitive displacement ELISA: hIL-10 (400 ng/mL) coated on Maxisorp wells; serially diluted IL-10 preincubated with 300 ng/mL hIL-10R1-Fc in PBS, 0.4% BSA, 0.02% Tween20 at 25 °C for 1 h, then transferred to the coated wells for 1 h at 25 °C; free hIL-10R1-Fc detected with anti-human IgG. In general terms: In an ELISA, binding on a coated surface is turned into a signal by an enzyme label.

Test [2] shares this target.
The target is the same in test [3]. The source holds these as a separate data set.
Test [4] addresses Pseudocowpox virus interleukin-10, FLAG-tagged (Pseudocowpox virus). Nature of the test: non-reducing SDS-PAGE with anti-FLAG Western blot; purified FLAG-tagged IL-10 mixed with SDS-PAGE sample buffer without DTT, without boiling; bands detected with HRP-conjugated anti-FLAG M2. In general terms: In western blotting, separated proteins are transferred to a membrane and probed.
Test [5] deals with Orf virus interleukin-10, FLAG-tagged (Orf virus). Nature of the test: non-reducing SDS-PAGE with anti-FLAG Western blot.
The target of test [6] is hIL-10R1-Fc chimeric protein (extracellular domain of human IL-10 receptor 1 fused to Fc) (human) (UniProt Q13651). Description: ELISA; […] (400 ng/mL) […].
In test [7] the target is T1, hIL-10R1-Fc chimeric protein (extracellular domain of human IL-10 receptor 1 fused to Fc) (human, UniProt Q13651 22-235).
T1 construct: human interleukin-10 receptor subunit 1 (IL-10R1), extracellular domain; No catalogue number printed; also called soluble hIL-10R1-Fc fusion protein; source: bought: R&D Systems
T1 sequence: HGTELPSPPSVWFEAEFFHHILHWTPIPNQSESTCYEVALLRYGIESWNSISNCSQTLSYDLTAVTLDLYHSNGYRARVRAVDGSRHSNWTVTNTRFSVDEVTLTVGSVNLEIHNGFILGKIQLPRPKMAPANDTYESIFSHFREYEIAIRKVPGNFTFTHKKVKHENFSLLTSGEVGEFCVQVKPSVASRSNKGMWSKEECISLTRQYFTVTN
Nature of the test: ELISA; competitive displacement ELISA: hIL-10 (400 ng/mL) coated on Maxisorp wells; serially diluted IL-10 preincubated with 300 ng/mL hIL-10R1-Fc in PBS, 0.4% BSA, 0.02% Tween20 at 25 °C for 1 h, then transferred to the coated wells for 1 h at 25 °C; free hIL-10R1-Fc detected with anti-human IgG. Conditions: both partners purified.

For the molecule “Red deerpox virus interleukin-10, FLAG-tagged (ligand)”, in test [1], the Emax (Δ%) of hIL-10R1-Fc displacement, relative to hIL-10 is 108 Δ% and the pIC50 (negative log10 of the IC50) stood at 9.51 M.

For “Grey sealpox virus interleukin-10, FLAG-tagged (ligand)”, in test [2], the Emax (Δ%, relative to hIL-10) of stimulation of murine MC/9 mast cell proliferation (with IL-3 and IL-4), 48 h is 25.8 Δ%; the pEC50 (M) of stimulation of murine MC/9 mast cell proliferation (with IL-3 and IL-4), 48 h was 9.3 M (pEC50). Moreover, in test [3], the Emax (Δ%, relative to hIL-10) of inhibition of IL-1β production by LTA-stimulated human THP-1 monocytes, 48 h is 25.8 Δ%; the Emax (Δ%, relative to hIL-10) of inhibition of IL-8 production by LTA-stimulated human THP-1 monocytes, 24 h (pIC50 ND) is 50.1 Δ%; the Emax (Δ%, relative to hIL-10) of inhibition of MCP-1 production by LTA-stimulated human THP-1 monocytes, 24 h (pIC50 ND) was 31 Δ%; the pIC50 (M) of inhibition of IL-1β production by LTA-stimulated human THP-1 monocytes, 48 h is 11 M (pIC50).

Regarding “Bovine papular stomatitis virus interleukin-10, FLAG-tagged (ligand)”, in test [1], the Emax (Δ%) of hIL-10R1-Fc displacement, relative to hIL-10 is 98.7 Δ% and the pIC50 (negative log10 of the IC50) is 8.72 M.

Consider “Pseudocowpox virus interleukin-10, FLAG-tagged (ligand)”, for which, in test [1], the Emax (Δ%) of hIL-10R1-Fc displacement, relative to hIL-10 is 94.6 Δ% and the pIC50 (negative log10 of the IC50) was found to be 7.66 M. This molecule also displayed a stoichiometry N in test [4] of 2.

“Orf virus interleukin-10, FLAG-tagged (ligand)” returned a stoichiometry N in test [5] of 2. In test [6], the Emax (Δ%) of hIL-10R1-Fc displacement, relative to hIL-10 is 105 Δ% and the pIC50 (negative log10 of the IC50) worked out at 9.24 M.

B1: human interleukin-10, FLAG-tagged (ligand, UniProt P22301 19-178, looked up)
chain: SPGQGTQSENSCTHFPGNLPNMLRDLRDAFSRVKTFFQMKDQLDNLLLKESLLEDFKGYLGCQALSEMIQFYLEEVMPQAENQDPDIKAHVNSLGENLKTLRLRLRRCHRFLPCENKSKAVEQVKNAFNKLQEKGIYKAMSEFDIFINYIEAYMTMKIRN
notes: also called hIL-10; human IL-10; not shown: FLAG, C-terminal, kept
On to B1, for which, in test [7], the “Emax (Δ%) of hIL-10R1-Fc displacement, relative to hIL-10” value is 100 Δ% and the “pIC50 (negative log10 of the IC50)” value amounted to 8.79.
